To fix the notation:
B1: PRT-672 (protein)
chain: MQITSVWTKGVTPPTPEQFTYQNEDVFHAPYIANQGWYDITKTFNGKDNLLCGAATAGNMLHWWFDQNKTEIENYLKKHPEKQKIIFNNQEMFDLRKAINTKDSQTNSALFEYFRDKAFPNLSARQLGVMPDHVLDMFINGYYLNVTKTQSTDVNRPYQTKDKRGGIFDHVFTRGDQSKLLTARHDLKNKTLNEISDLIKQELTEGKALALSHTYANVRINHVINLWGADFDAEGNLEAIYVTDSDSNASIGMKKYFVGVNSSGKVAISAKKIEDDNIGAQVLGLFTLSSGQDIWEQLSLEHHHHHH
B2: PRT-674 (protein)
chain: MQITSVWTKGVTPPTMEQFRYNNYDVFHAPYLPGQGWYDITKAFDGGDNLLCGAATAGNMLHWWFDQNKEEIEAYLSKYPEKQKIIFNNQELFDLRKAINSKDSQTNSELFNYFRDKAFGNLSARQKGVMPDLVLDMFINGYYLNLNKTQSTDVNRPYQDPDKRGGIFDDVFKEGDQTKLLTARHDLSNGGLDDISTIIKQELQSGRALALSHTYANVSYSHVINLWGADFDAEGNLEAIYVTDSDDDQSIGMKKYKVGKNASGHVRISAKKIEDENIGAQVLGLFTLSLGKEIWQKLSLEHHHHHH
B3: PRT-87 (protein)
chain: MANQEIRYSEVTPYHITSVWTKGVTPPEQFTQGEDVFHAPYIANQGWYDITKTFNGKDNLLCGAATAGNMLHWWFDQNKEEIERYLKKYPEKQKIMFGDQELLDVRKVINTKDSQTNSKLFEYFRDKAFPNLSARRLGVMPDLVLDMFINGYYLSVTKTQTTDVNRTYGNKDNRGGIFDAVFTRGDQSKLLTNRHDFKEKNLKEISQLIKQELQEGKALALSHTYANVRINHVINLWGADFDSEGNLKAIYVTDSDSNASIGMKKYFVGVNSSGKVAISAKEIEEDNIGAQVLGLFTLSTGQDIWEQTN
B4: PRT-664 (protein)
chain: MQITSVWTKGVTPLTPEQFRYNNEDVIHAPYLPHQGWYDITKAFDGKDNLLCGAATAGNMLHWWFDQNKTEIEAYLSKHPEKQKIIFNNQELFDLRAAINTKDSQTNSALFNYFRDKAFPNLSARQLGVMPDLVLDMFINGYYLNVFKTQSTDVNRPYQDKDKRGGIFDAVFTRGDQTTLLTARHDLKNKGLNDISTLIKQELTEGKALALSHTYANVSISHVINLWGADFNAEGNLEAIYVTDSDSDASIGMKKYYVGINASGHVAISAKKIEGENIGAQVLGLFTLSSGKDIWQKLSLEHHHHHH
B5: PRT-85 (protein)
chain: MANQEIRYSEVTPKTITSVWTKGVTPPADFTQGEDVFHAPYKPNQGWYDINKTFNGKDNLLCGAATAGNMLHWWFDQNKEQIEAYLKKHPEKQKIMFGDQELLDVRKAINTKDDQTDSKLFNYFKDKAFPNLSARRLGVMPDHVLDMFINGYRLNVTKTQTTDVNRTYQTKDKRGGFFDAVFTRGDQSKLLTNRHDFKEKNLKEISDLIKKELTEGKALGLSHTYANVRINHVINLWGADFDSEGNLKAIYVTDSDSNASIGMKKYYVGVNSAGKVAISAKEIKGENIGAQVLGLYTLSTGQDIWNQTN
B6: PRT-88 (protein)
chain: MANQEIRYSEVTPYHVTSVWTKGVTPPAKFTQGEDVFHAPYVANQGWYDITKTFNGKDDLLCGAATAGNMLHWWFDQNKEKIEAYLKKHPEKQKIMFGDQELLDVRKVINTKGDQTNSELFNYFRDKAFPGLSARRLGVMPDLVLDMFINGYYLNVYKTQTTDVNRTYQEKDRRGGIFDAVFTRGDQSKLLTSRHDFKEKNLKEISDLIKKELTEGKALGLSHTYANVRINHVINLWGADFDSNGNLKAIYVTDSDSNASIGMKKYFVGVNSAGKVAISAKEIKEDNIGAQVLGLFTLSTGQDIWNQTN
B7: PRT-89 (protein)
chain: B6 chain with G113D
B8: PRT-93 (protein)
chain: B6 chain with E91D, G113D, L137I, I304S
B9: PRT-92 (protein)
chain: B6 chain with H15T, V16I, K29D, V108A, G113D, G131N, R173K, K211Q, N244E
B10: PRT-90 (protein)
chain: B6 chain with V11E, G113D, N201T
B11: PRT-94 (protein)
chain: B6 chain with V11E, E91D, L137I, N201T, I304S
B12: PRT-91 (protein)
chain: B6 chain with V11E, V16I, G113D, G131N, Y157G, R173K, K211Q, K284E
B13: PRT-86 (protein)
chain: MANQEIRYSEEDPKHVTSVWTKGVTPPTDFTQGEDVLHAPYIANQGWYDITKTFNGKDDLLCGAATAGNMLHWWFDQNKEEIENYLKKHPEKQKIMFGDQELLDVRKVINTKDSQTNSKLFNYFREKAFPNLSARRLGVMPDLVLDMFINGYYLNVTKTQTTDVNRTYQTKDKRGGIFDAVFTRGDQTKLLTNRHDFKEKTLNEISDLIKQELQEGKALGLSHTYANVRINHVINLWGADFDSNGNLEAIYVTDSDANASIGMKKYFVGKNSAGKVAISAKEIKDDNIGAQVLGLFTLSTGQDIWNQTN
B14: PRT-653 (protein)
chain: MQITSVWTKGVTPLTPEQFRYNNEDVIHAPYLAHQGWYDITKAFDGKDNLLCGAATAGNMLHWWFDQNKTEIEAYLSKHPEKQKIIFNNQELFDLKAAIDTKDSQTNSQLFNYFRDKAFPNLSARQLGVMPDLVLDMFINGYYLNVFKTQSTDVNRPYQDKDKRGGIFDAVFTRGDQTTLLTARHDLKNKGLNDISTIIKQELTEGRALALSHTYGNVRSSHVINLWGADFNAEGNLEAIYVTDSDANASIGMKKYFVGINAHGHVAISAKKIEGENVGAQVLGLFTLSSGKDIWQKLSLEHHHHHH
B15: PRT-656 (protein)
chain: B14 chain with A97R, D100N, T101D, T106Q, Q109E, G216A, R219S, S220I, V278I
B16: PRT-648 (protein)
chain: B14 chain with E91Y, P120G, F147N, D160K, K161P, G216A, R219S, S220I, V278I
B17: PRT-679 (protein)
chain: B14 chain with A43T, A97E, D100N, D194E, R207K, G216A, R219S, S220I, V278I
B18: PRT-84 (protein)
chain: MANQEIRYSEETPYTVTSVWTKGVTPPTQFIQGEDVFHAPYKANQGWYDITKTFNGKDNLLCGAATAGNMLHWWFDQNKEYIEAYLKKHPEKQKIMFGDQELLDVRKVINTKDSQTDSKLFNYFKDKAFPNLSARRLGVMPDLVLDMFINGYYLNVGKTQTTDVNRTYQEKDKRGGIFDAVFTRGDQSKLLTSRHDFKEKSLKEISDLIKKELTEGKALGLSHTYANVRINHVINLWGADFDSEGNLKAIYVTDSDSDASIGMKKYFVGVNSSGKVAISAKEIEEDNIGAQVLGLFTLSSGQDIWNQTN

Changes are numbered by the printed parent chain.

In this series the target is pooled human IgG (human IgG1,2,3 and 4).
B1 had an Enzyme activity endpoint: Fab′2 of 775 ng/µL, an Enzyme activity endpoint: Fc of 443 ng/µL, an Enzyme activity endpoint: IgG of 73 ng/µL and an Enzyme activity endpoint: scIgG of 0 ng/µL.

Consider B2, for which the Enzyme activity endpoint: Fab′2 is 462 ng/µL, the Enzyme activity endpoint: Fc stood at 0 ng/µL, the Enzyme activity endpoint: IgG amounted to 891 ng/µL and the Enzyme activity endpoint: scIgG was found to be 12 ng/µL.

As for B3, the Enzyme Activity Endpoint Assay: Fab′2 was 0 ng/µL, the Enzyme Activity Endpoint Assay: Fc was 52 ng/µL, the Enzyme Activity Endpoint Assay: IgG came out at 60 ng/µL and the Enzyme Activity Endpoint Assay: scIgG stood at 50 ng/µL.

B4: the Enzyme activity endpoint: Fab′2 was found to be 703 ng/µL, the Enzyme activity endpoint: Fc worked out at 419 ng/µL, the Enzyme activity endpoint: IgG came to 0 ng/µL and the Enzyme activity endpoint: scIgG amounted to 0 ng/µL.

B5 showed an Enzyme Activity Endpoint Assay: Fab′2 of 0 ng/µL, an Enzyme Activity Endpoint Assay: Fc of 0 ng/µL, an Enzyme Activity Endpoint Assay: IgG of 109 ng/µL and an Enzyme Activity Endpoint Assay: scIgG of 0 ng/µL.

Protein B6 displayed an Enzyme Activity Endpoint Assay: Fab′2 of 48 ng/µL, an Enzyme Activity Endpoint Assay: Fc of 110 ng/µL, an Enzyme Activity Endpoint Assay: IgG of 25 ng/µL and an Enzyme Activity Endpoint Assay: scIgG of 0 ng/µL.

As to B7, the Enzyme Activity Endpoint Assay: Fab′2 turned out to be 45 ng/µL, the Enzyme Activity Endpoint Assay: Fc stood at 89 ng/µL, the Enzyme Activity Endpoint Assay: IgG amounted to 34 ng/µL and the Enzyme Activity Endpoint Assay: scIgG was 0 ng/µL.

The protein B8 registered an Enzyme Activity Endpoint Assay: Fab′2 of 38 ng/µL, an Enzyme Activity Endpoint Assay: Fc of 91 ng/µL, an Enzyme Activity Endpoint Assay: IgG of 11 ng/µL and an Enzyme Activity Endpoint Assay: scIgG of 0 ng/µL.

In turn, B9 showed an Enzyme Activity Endpoint Assay: Fab′2 of 40 ng/µL, an Enzyme Activity Endpoint Assay: Fc of 104 ng/µL, an Enzyme Activity Endpoint Assay: IgG of 8 ng/µL and an Enzyme Activity Endpoint Assay: scIgG of 6 ng/µL.

The protein B10 displayed an Enzyme Activity Endpoint Assay: Fab′2 of 44 ng/µL, an Enzyme Activity Endpoint Assay: Fc of 106 ng/µL, an Enzyme Activity Endpoint Assay: IgG of 21 ng/µL and an Enzyme Activity Endpoint Assay: scIgG of 0 ng/µL.

As to B11, the Enzyme Activity Endpoint Assay: Fab′2 was 547 ng/µL, the Enzyme Activity Endpoint Assay: Fc was 120 ng/µL, the Enzyme Activity Endpoint Assay: IgG is 0 ng/µL and the Enzyme Activity Endpoint Assay: scIgG was 0 ng/µL.

B12 came in with an Enzyme Activity Endpoint Assay: Fab′2 of 40 ng/µL, an Enzyme Activity Endpoint Assay: Fc of 102 ng/µL, an Enzyme Activity Endpoint Assay: IgG of 16 ng/µL and an Enzyme Activity Endpoint Assay: scIgG of 9 ng/µL.

Turning to B13, the Enzyme Activity Endpoint Assay: Fab′2 is 4 ng/µL, the Enzyme Activity Endpoint Assay: Fc came to 61 ng/µL, the Enzyme Activity Endpoint Assay: IgG came out at 45 ng/µL and the Enzyme Activity Endpoint Assay: scIgG came out at 53 ng/µL.

Turning to B14, the Enzyme activity endpoint: Fab′2 is 1350 ng/µL, the Enzyme activity endpoint: Fc turned out to be 0 ng/µL, the Enzyme activity endpoint: IgG was 2350 ng/µL and the Enzyme activity endpoint: scIgG was 0 ng/µL.

B15 yielded an Enzyme activity endpoint: Fab′2 of 841 ng/µL, an Enzyme activity endpoint: Fc of 540 ng/µL, an Enzyme activity endpoint: IgG of 0 ng/µL and an Enzyme activity endpoint: scIgG of 319 ng/µL.

Turning to B16, the Enzyme activity endpoint: Fab′2 turned out to be 182 ng/µL, the Enzyme activity endpoint: Fc worked out at 206 ng/µL, the Enzyme activity endpoint: IgG was 417 ng/µL and the Enzyme activity endpoint: scIgG stood at 619 ng/µL.

B17 yielded an Enzyme activity endpoint: Fab′2 of 693 ng/µL, an Enzyme activity endpoint: Fc of 327 ng/µL, an Enzyme activity endpoint: IgG of 34 ng/µL and an Enzyme activity endpoint: scIgG of 54 ng/µL.

B18: the Enzyme Activity Endpoint Assay: Fab′2 was 8 ng/µL, the Enzyme Activity Endpoint Assay: Fc was found to be 67 ng/µL, the Enzyme Activity Endpoint Assay: IgG stood at 27 ng/µL and the Enzyme Activity Endpoint Assay: scIgG stood at 51 ng/µL.

The record behind these values is patent US20250027068.
